What was measured:
CD4 (mouse) = CD4 (mouse) (UniProt P06332)

In the case of anti-CD4 mAb (clone GK1.5) (antibody), the depletion of T cell subset in mice (CD4 (mouse)) is reported as greater than 90%.
Work on anti-CD8 mAb (clone 2.43) (antibody) yielded a depletion of T cell subset in mice (CD8 (mouse)) greater than 90%.
